One block for each molecule: values may come before it.
Assays:
GFP-RRP1B_(RAxA) (human) = GFP-RRP1B_(RAxA) (human) (UniProt Q14684); assay: co-IP
[1] = target: GFP-RRP1B_(S702D) (human) (UniProt Q14684); assay: co-IP
[2] = target: mCherry-LacRepressor-NLS-PP1γ (UniProt P36873); assay: two-hybrid
[3] = target: His6-tagged PP1α_(7–330) Q20R (UniProt P62136); assay: SPR
His6-tagged PP1γ_(7–308) = His6-tagged PP1γ_(7–308) (UniProt P36873 7-308); assay: ITC
His6-tagged PP1γ_(7–323) = His6-tagged PP1γ_(7–323) (UniProt P36873 7-323); assay: ITC
His6-tagged PP1γ_(7–323), sequence (P36873 7-323): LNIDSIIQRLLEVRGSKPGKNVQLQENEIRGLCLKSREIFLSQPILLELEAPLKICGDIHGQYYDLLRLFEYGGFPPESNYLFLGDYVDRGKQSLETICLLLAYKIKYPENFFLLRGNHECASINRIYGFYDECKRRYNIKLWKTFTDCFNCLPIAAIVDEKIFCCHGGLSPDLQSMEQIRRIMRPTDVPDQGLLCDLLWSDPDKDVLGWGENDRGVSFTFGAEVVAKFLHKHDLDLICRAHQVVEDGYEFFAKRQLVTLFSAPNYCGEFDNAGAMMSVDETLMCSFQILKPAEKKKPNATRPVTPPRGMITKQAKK

His6-tagged PP1α_(7–330) = His6-tagged PP1α_(7–330) (UniProt P62136 7-330); assay: ITC
His6-tagged PP1α_(7–330), sequence (P62136 7-330): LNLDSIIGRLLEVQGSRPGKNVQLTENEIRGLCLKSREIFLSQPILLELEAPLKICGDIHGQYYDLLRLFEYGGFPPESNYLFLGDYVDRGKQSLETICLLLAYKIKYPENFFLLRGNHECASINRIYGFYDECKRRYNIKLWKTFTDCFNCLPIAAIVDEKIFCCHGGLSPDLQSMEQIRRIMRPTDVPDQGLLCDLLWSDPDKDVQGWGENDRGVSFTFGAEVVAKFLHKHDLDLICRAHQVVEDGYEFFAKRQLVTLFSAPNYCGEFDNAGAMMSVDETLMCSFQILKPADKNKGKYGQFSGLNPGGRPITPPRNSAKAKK

[4] = target: His6-tagged PP1α_(7–330) Q20R (UniProt P62136 7-330, Q20R); assay: SPR
His6-tagged PP1α_(7–330) Q20R (UniProt P62136 7-330, Q20R), sequence (P62136 7-330 Q20R): as the sequence (P62136 7-330) above, with Q14R counted along it

His6-tagged PP1γ_(7–308), sequence (P36873 7-308): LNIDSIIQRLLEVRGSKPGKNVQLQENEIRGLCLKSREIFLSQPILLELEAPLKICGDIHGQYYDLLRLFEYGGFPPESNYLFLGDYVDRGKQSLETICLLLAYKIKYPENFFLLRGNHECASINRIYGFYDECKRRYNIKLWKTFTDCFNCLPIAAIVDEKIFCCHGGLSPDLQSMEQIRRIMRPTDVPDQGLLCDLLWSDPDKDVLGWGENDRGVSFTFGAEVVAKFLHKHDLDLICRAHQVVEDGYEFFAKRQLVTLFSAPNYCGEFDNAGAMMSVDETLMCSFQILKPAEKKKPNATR
His6-tagged PP1α_(7–330) Q20R (UniProt P62136), sequence (P62136 7-330 Q20R): as the sequence (P62136 7-330) above, with Q14R counted along it
mCherry-LacRepressor-NLS-PP1γ, sequence (P36873 whole entry): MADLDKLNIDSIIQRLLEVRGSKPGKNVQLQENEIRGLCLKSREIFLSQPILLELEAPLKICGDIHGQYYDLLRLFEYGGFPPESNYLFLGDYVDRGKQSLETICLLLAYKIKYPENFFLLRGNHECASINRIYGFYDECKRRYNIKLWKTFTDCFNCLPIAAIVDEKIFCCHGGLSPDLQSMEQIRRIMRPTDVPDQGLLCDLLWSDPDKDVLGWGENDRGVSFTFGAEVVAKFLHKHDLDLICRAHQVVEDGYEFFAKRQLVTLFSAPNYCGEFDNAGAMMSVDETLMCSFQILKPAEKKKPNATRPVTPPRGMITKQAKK

Molecule: RRP1B_(682–727) F715A (from UniProt Q14684) (domain or fragment)
- Kd [3]: 157 nM

B1: RRP1B_(657–758) (domain or fragment)
chain: RRAKSSTATHPPGPAVQLNKTPSSSKKVTFGLNRNMTAEFKKTDKSILVSPTGPSRVAFDPEQKPLHGVLKTPTSSPASSPLVAKKPLTTTPRRRPRAMDFF
- Kd (His6-tagged PP1γ_(7–308)): 17.6 nM
- Kd (His6-tagged PP1γ_(7–323)): 40 nM
- Kd (His6-tagged PP1α_(7–330)): 888 nM

Molecule: KKVTFGLNRNMTAEFKKTDKSILVSPTGPSRVAFDPEQKPLHGVLK (domain or fragment) [RRP1B_(682–727)]
- Kd [4]: 22.5 nM

Now from value to molecule:

- PP1γ co-precipitated, percent of WT GFP-RRP1B (GFP-RRP1B_(RAxA) (human)): 2.1%
- PP1γ co-precipitated, percent of WT GFP-RRP1B [1]: 4.6%
Molecule: PP1γ, endogenous (from UniProt P36873 1-323) (enzyme)

- percent of cells with accumulation at the gene locus [2]: 7%
Molecule: GFP-RRP1B_(S702D) (from UniProt Q14684) (natural protein)

- Kd [3]: 329 nM
Molecule: RRP1B_(682–727) S702D (from UniProt Q14684) (domain or fragment)

- Kd [4]: 114 nM
Molecule: KKVTFGLNRNMTAEFKKTDKSILVSPTGPSRVAFDPEQKPLH (domain or fragment) [RRP1B_(682–723)]

- Kd (His6-tagged PP1γ_(7–308)): 22.6 nM
B2: RRP1B_(677–736) (domain or fragment)
chain: TPSSSKKVTFGLNRNMTAEFKKTDKSILVSPTGPSRVAFDPEQKPLHGVLKTPTSSPASS
